B1: Protein pop-1 (Caenorhabditis elegans), Q10666 (parent)
chain: MMADEELGDEVKVFRRDEDADDDPMISGETSEQQLADDKKEAVMEAELDGAGRNPSIDVLKSAFPKVEPMSPSFPGLMSHFSPGYSAAALPMFMPLFMNPYAAALRSPSLMFPMGAMSPTFPMFPPSPVYGAAIAAAAAKQHFENMAPLNMRAGHPMNQMGMPPYMHPSSMAPQNVDRRAQGGGKAKKDDHVKKPLNAFMWFMKENRKALLEEIGNNEKQSAELNKELGKRWHDLSKEEQAKYFEMAKKDKETHKERYPEWSARENYAVNKKKTKKRRDKSIPSENNDQKKCRARFGVNNTEMWCKFCKRKKKCEYATDRSGGSDITDSQDGRGTSGAYSSSSESPSPKANAGIALTTQQQQAAMMHTMLMQMRLGSTTGASTHVPSPLASSSAGRSPLDANASDSESDVEEEEDEQIDPTVMQQTHDMLMQESMCTI
partner: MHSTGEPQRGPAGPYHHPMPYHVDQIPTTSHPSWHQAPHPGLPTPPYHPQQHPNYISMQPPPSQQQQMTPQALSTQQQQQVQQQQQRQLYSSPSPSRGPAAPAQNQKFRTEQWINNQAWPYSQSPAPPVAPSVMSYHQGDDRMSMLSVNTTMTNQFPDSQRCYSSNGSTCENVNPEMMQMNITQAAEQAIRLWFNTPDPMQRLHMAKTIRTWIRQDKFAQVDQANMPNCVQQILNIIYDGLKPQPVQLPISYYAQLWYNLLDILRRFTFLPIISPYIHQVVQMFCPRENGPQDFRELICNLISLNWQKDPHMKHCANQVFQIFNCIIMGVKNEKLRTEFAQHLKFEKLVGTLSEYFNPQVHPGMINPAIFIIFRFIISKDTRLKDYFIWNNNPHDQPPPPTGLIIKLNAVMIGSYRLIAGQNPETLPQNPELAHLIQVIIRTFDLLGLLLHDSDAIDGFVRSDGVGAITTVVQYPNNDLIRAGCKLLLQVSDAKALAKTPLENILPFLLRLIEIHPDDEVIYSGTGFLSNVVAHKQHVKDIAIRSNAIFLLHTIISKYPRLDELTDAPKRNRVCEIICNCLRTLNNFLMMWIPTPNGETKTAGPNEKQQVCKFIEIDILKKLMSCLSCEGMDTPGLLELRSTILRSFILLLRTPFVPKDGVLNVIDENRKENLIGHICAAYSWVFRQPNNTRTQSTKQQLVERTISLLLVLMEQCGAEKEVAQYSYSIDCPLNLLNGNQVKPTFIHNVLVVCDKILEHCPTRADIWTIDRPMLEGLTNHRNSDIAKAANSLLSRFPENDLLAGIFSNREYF
B2: Beta-catenin homolog sys-1 (Caenorhabditis elegans), Q9XVI2 (parent)
chain: B1 partner
partner: B1 chain

Variants of B1 are the subject of the first assay. The following applies: with ctnh1_caeel sys-1, Q9XVI2.
Regarding MMADEELGEEVKVFRRDEDADDDPMISGETSEQQLADDKKEAVMEAELDGAGRNPSIDVLKSAFPKVEPMSPSFPGLMSHFSPGYSAAALPMFMPLFMNPYAAALRSPSLMFPMGAMSPTFPMFPPSPVYGAAIAAAAAKQHFENMAPLNMRAGHPMNQMGMPPYMHPSSMAPQNVDRRAQGGGKAKKDDHVKKPLNAFMWFMKENRKALLEEIGNNEKQSAELNKELGKRWHDLSKEEQAKYFEMAKKDKETHKERYPEWSARENYAVNKKKTKKRRDKSIPSENNDQKKCRARFGVNNTEMWCKFCKRKKKCEYATDRSGGSDITDSQDGRGTSGAYSSSSESPSPKANAGIALTTQQQQAAMMHTMLMQMRLGSTTGASTHVPSPLASSSAGRSPLDANASDSESDVEEEEDEQIDPTVMQQTHDMLMQESMCTI [D9E], the “effect of a mutation on the interaction” value was “disrupting interaction strength”.

The variants in another assay derive from B2. The following applies: with pop1_caeel pop-1, Q10666.
A533L: the “effect of a mutation on the interaction” value is on record as “disrupting interaction strength”.

K539A: the “effect of a mutation on the interaction” value is on record as “disrupting interaction strength”.

The values are drawn from IntAct's records for PubMed 18477457.
